# Laboratory results reported in the supplement of paper PMC10567573.
# B1: HESX1 (parent)
# chain: HVPNPPSGISFPSVVDHPMPEERA
# Variants of: B1
# Assay: protein stability index of a GFP-peptide fusion (GPS, HEK-293T) (PSI 1-6); higher = more stable
# Conditions: c terminus: a fixed tail appended
# 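Further: lentivirally expressed fusions sorted by FACS into six bins by GFP to DsRed ratio, PSI derived from sequencing read proportions per bin multiplied by bin number.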
row,Variant,protein stability index
1,HVPVPPSGISFPSVVDHPMPEERA [N4V],2.71
2,HVPRPPSGISFPSVVDHPMPEERA [N4R],4.18
3,HVPAPPSGISFPSVVDHPMPEERA [N4A],1.65
4,HVPKPPSGISFPSVVDHPMPEERA [N4K],3.76
5,HVPGPPSGISFPSVVDHPMPEERA [N4G],1.66
6,HVPNPPWGISFPSVVDHPMPEERA [S7W],1.71
7,HVPNPPCGISFPSVVDHPMPEERA [S7C],2.38
8,HVPNPPYGISFPSVVDHPMPEERA [S7Y],2.04
9,HVPNPPGGISFPSVVDHPMPEERA [S7G],2.4
10,HVPNPPRGISFPSVVDHPMPEERA [S7R],2.9
11,HVPNPPHGISFPSVVDHPMPEERA [S7H],2.54
12,HVPNPPLGISFPSVVDHPMPEERA [S7L],3.61
13,HVPNPPTGISFPSVVDHPMPEERA [S7T],2.75
14,HVPNPPQGISFPSVVDHPMPEERA [S7Q],2.84
15,HVPNPPFGISFPSVVDHPMPEERA [S7F],2.15
16,HVPNPPDGISFPSVVDHPMPEERA [S7D],2.8
17,HVPNPPKGISFPSVVDHPMPEERA [S7K],2.93
18,HVPNPPAGISFPSVVDHPMPEERA [S7A],3.88
19,HVPNPPNGISFPSVVDHPMPEERA [S7N],2.99
20,HVPNPPVGISFPSVVDHPMPEERA [S7V],3.3
21,HVPNPPEGISFPSVVDHPMPEERA [S7E],3.57
22,HVPNPPIGISFPSVVDHPMPEERA [S7I],3.4
23,HVPNPPPGISFPSVVDHPMPEERA [S7P],2.7
24,HVPNPPMGISFPSVVDHPMPEERA [S7M],2.74

row,Variant,protein stability index
1,HVPNAPSGISFPSVVDHPMPEERA [P5A],2.71
2,HVPNYPSGISFPSVVDHPMPEERA [P5Y],2.03
3,HVPNCPSGISFPSVVDHPMPEERA [P5C],2.45
4,HVPNQPSGISFPSVVDHPMPEERA [P5Q],3.5
5,HVPNTPSGISFPSVVDHPMPEERA [P5T],2.74
6,HVPNLPSGISFPSVVDHPMPEERA [P5L],2.53
7,HVPNMPSGISFPSVVDHPMPEERA [P5M],2.95
8,HVPNSPSGISFPSVVDHPMPEERA [P5S],3.76
9,HVPNHPSGISFPSVVDHPMPEERA [P5H],2.6
10,HVPNNPSGISFPSVVDHPMPEERA [P5N],3.03
11,HVPNVPSGISFPSVVDHPMPEERA [P5V],2.82
12,HVPNDPSGISFPSVVDHPMPEERA [P5D],3.96
13,HVPNKPSGISFPSVVDHPMPEERA [P5K],2.69
14,HVPNGPSGISFPSVVDHPMPEERA [P5G],1.93
15,HVPNRPSGISFPSVVDHPMPEERA [P5R],3.28
16,HVPNIPSGISFPSVVDHPMPEERA [P5I],3.02
17,HVPNEPSGISFPSVVDHPMPEERA [P5E],3.81
18,HVPNFPSGISFPSVVDHPMPEERA [P5F],2.38
19,HVPNWPSGISFPSVVDHPMPEERA [P5W],2.39
20,HVPNPGSGISFPSVVDHPMPEERA [P6G],1.81
21,HVPNPESGISFPSVVDHPMPEERA [P6E],2.98
22,HVPNPCSGISFPSVVDHPMPEERA [P6C],1.69
23,HVPNPKSGISFPSVVDHPMPEERA [P6K],1.78
24,HVPNPISGISFPSVVDHPMPEERA [P6I],2.24

row,Variant,protein stability index
1,HVPNPVSGISFPSVVDHPMPEERA [P6V],2.11
2,HVPNPQSGISFPSVVDHPMPEERA [P6Q],2.67
3,HVPNPSSGISFPSVVDHPMPEERA [P6S],2.4
4,HVPNPNSGISFPSVVDHPMPEERA [P6N],2
5,HVPNPLSGISFPSVVDHPMPEERA [P6L],2.62
6,HVPNPDSGISFPSVVDHPMPEERA [P6D],2.56
7,HVPNPRSGISFPSVVDHPMPEERA [P6R],1.71
8,HVPNPTSGISFPSVVDHPMPEERA [P6T],2.13
9,HVPNPWSGISFPSVVDHPMPEERA [P6W],2.25
10,HVPNPFSGISFPSVVDHPMPEERA [P6F],1.59
11,HVPNPMSGISFPSVVDHPMPEERA [P6M],2.63
12,HVPNPHSGISFPSVVDHPMPEERA [P6H],1.83
13,HVPNPASGISFPSVVDHPMPEERA [P6A],2.34
14,HVPNPYSGISFPSVVDHPMPEERA [P6Y],2.39
15,HYPNPPSGISFPSVVDHPMPEERA [V2Y],5.18
16,HLPNPPSGISFPSVVDHPMPEERA [V2L],5
17,HKPNPPSGISFPSVVDHPMPEERA [V2K],5
18,HDPNPPSGISFPSVVDHPMPEERA [V2D],5.52
19,HFPNPPSGISFPSVVDHPMPEERA [V2F],4.78
20,HGPNPPSGISFPSVVDHPMPEERA [V2G],5.17
21,HWPNPPSGISFPSVVDHPMPEERA [V2W],4.53
22,HRPNPPSGISFPSVVDHPMPEERA [V2R],4.84
23,HEPNPPSGISFPSVVDHPMPEERA [V2E],5.7
24,HAPNPPSGISFPSVVDHPMPEERA [V2A],4.97

row,Variant,protein stability index
1,HNPNPPSGISFPSVVDHPMPEERA [V2N],5.14
2,HSPNPPSGISFPSVVDHPMPEERA [V2S],5.06
3,HIPNPPSGISFPSVVDHPMPEERA [V2I],4.37
4,HQPNPPSGISFPSVVDHPMPEERA [V2Q],5.26
5,HCPNPPSGISFPSVVDHPMPEERA [V2C],4.32
6,HMPNPPSGISFPSVVDHPMPEERA [V2M],5.26
7,HTPNPPSGISFPSVVDHPMPEERA [V2T],4.92
8,HHPNPPSGISFPSVVDHPMPEERA [V2H],4.86
9,HVPNPPSMISFPSVVDHPMPEERA [G8M],2.59
10,HVPNPPSHISFPSVVDHPMPEERA [G8H],3.49
11,HVPNPPSFISFPSVVDHPMPEERA [G8F],2.84
12,HVPNPPSRISFPSVVDHPMPEERA [G8R],2.94
13,HVPNPPSKISFPSVVDHPMPEERA [G8K],3.62
14,HVPNPPSEISFPSVVDHPMPEERA [G8E],3.01
15,HVPNPPSDISFPSVVDHPMPEERA [G8D],4.1
16,HVPNPPSCISFPSVVDHPMPEERA [G8C],2.36
17,HVPNPPSIISFPSVVDHPMPEERA [G8I],2.83
18,HVPNPPSPISFPSVVDHPMPEERA [G8P],4.09
19,HVPNPPSNISFPSVVDHPMPEERA [G8N],3.48
20,HVPNPPSQISFPSVVDHPMPEERA [G8Q],3.18
21,HVPNPPSAISFPSVVDHPMPEERA [G8A],3.2
22,HVPNPPSLISFPSVVDHPMPEERA [G8L],3.17
